Laboratory results reported in patent US5976875A, “Diacylglycerol kinase isoforms epsilon and zeta and methods of use thereof” (priority 1997, dated 1999).
Where two headings read alike, the source gives them in different places. Blank lines part the entries; values can stand above or below the molecule they belong to.

Tests used:
[1] = biological target: human diacylglycerol kinase ζ (DGKζ) (human)
[2] = test system: protein kinase M (PKM), catalytic fragment of mixed rat brain PKC isozymes; assay: Phosphorylation of peptides by PKM (kinetics); assay type: biochemical; conditions: for Km: FIG. 15C
Procedure: Phosphorylation of peptides and proteins--Peptides were phosphorylated by the purified catalytic fragment of mixed rat brain PKC isozymes (protein kinase M; PKM). In all cases involving kinetic measurements, the peptides were phosphorylated by PKM (1:120 dilution of frozen stock solution) at 30° C. All reactions were performed in the linear range of peptide phosphorylation, in an assay mixture containing 40 mM Hepes (pH 7.4), 0.25 mM EGTA, 12.5 mM MgCl2, 75 μM y-[^32 P]ATP, and various concentrations of peptides. In the peptide experiments, the reactions were stopped after 10 minutes by the addition of 1/5 vol of 5×SDS sample buffer, boiled for 5 minutes and then subjected to electrophoresis on 20% acrylamide gels. After the gels were dried, the phosphorylated peptides were localized by autoradiography, excised from the gel, and subjected to Cerenkov scintillation counting.

[3] = biological target: protein kinase M (PKM), catalytic fragment of mixed rat brain PKC isozymes; assay: Inhibition of PKM phosphorylation of histone IIIS; assay type: biochemical; conditions: histone IIIS as substrate, 10 minute reaction; read-out: half-maximal inhibition of PKM
Procedure: When the inhibitory effects of the DGK A/S peptide were assayed, histone IIIS (final concentration 20 μg/ml or as specified) was used as a substrate for PKM (1:80 dilution of frozen stock) in the reaction mixture described above. The reaction was linear for at least 40 minutes at 30° C.; 10 and 15 minute time points were chosen to evaluate inhibitory effects of the peptide. The peptide was added to the reaction mixture for 10 min at 30° C. in a shaking water bath before the reactions were started by the addition of Mg/ATP; samples were assayed using filter papers (P81, Whatman) and trichloroacetic acid precipitation.

[4] = test system: protein kinase M (PKM), catalytic fragment of mixed rat brain PKC isozymes; conditions: comparison values for MARCKS and MRP synthetic peptides; read-out: S0.5 for phosphorylation by PKM; cited from earlier work
[5] = biological target: DGK peptide, 18 amino acid peptide corresponding to residues 256-273 of DGKζ (human)
[6] = biological target: DGK A/S peptide, the DGK peptide with an alanine substituted for the serine at residue 10 (human)
DGK.zeta.-2 = biological target: T1, DGK.zeta.-2 (Homo sapiens, UniProt Q13574); assay: DGK activity assay, homogenates of DGK.zeta.-2-transfected COS-7 cells; assay type: biochemical
T1 construct: the DGK.zeta.-2 cDNA was subcloned into an expression vector and transfected into COS-7 cells; expressed in transfected cells; host or cells: COS-7
Procedure: DAG Kinase Assay--Cell homogenates were sonicated twice with 5 watts for 5 at 4° C. The protein concentration of each cell homogenate was measured following trichloracetic acid precipitation utilizing the BCA protein assay reagent (Pierce). Each assay contained 50 mM MOPS, pH 7.2, 100 mM NaCl, 20 mM MgCl2, 1 mM EGTA, 1 mM dithiothreitol, 2 mM 1,2-dieleoyl-an-glycerol, 3.5 mM phosphatidylserine, 75 mM octyl-β-glucopyranoside, 500 μM [γ^32 ]ATP, and 0-20 μg of cell homogenate in a volume of 200 μl. For substrate specificity experiments, various diacylglycerol species were substituted for 1,2-dioleoyl-an-glycerol. The reactions were initiated by the addition of ATP (20-30 μCi/μmol), were incubated for 10 min. At 24° C., and were terminated by the addition of 200 μl of 1% perchloric acid. […] Fifty μl of each sample were counted directly by liquid acintillation spectrometry, and the remainder was applied to a 20×20 cm Silica 60A thin layer chromatography plate (Whatman). […] The region containing phosphatidic acid (as indicated by radiolabeled standards) and the remaining areas of each lane were scraped separately, and the radioactivity was estimated by liquid scintillation spectrometry. The amount of phosphatidic acid formed per reaction was calculated as [2(direct count)(PA cpm)(total lane cpm)]×[mole ATP/cpm]. […]

[7] = biological target: protein kinase M (PKM), purified catalytic fragment of mixed rat brain PKC isozymes (rat)

T1 sequence (Q13574 1-1117 isoform Q13574-1 Q21R/L159V/L166C/L167C): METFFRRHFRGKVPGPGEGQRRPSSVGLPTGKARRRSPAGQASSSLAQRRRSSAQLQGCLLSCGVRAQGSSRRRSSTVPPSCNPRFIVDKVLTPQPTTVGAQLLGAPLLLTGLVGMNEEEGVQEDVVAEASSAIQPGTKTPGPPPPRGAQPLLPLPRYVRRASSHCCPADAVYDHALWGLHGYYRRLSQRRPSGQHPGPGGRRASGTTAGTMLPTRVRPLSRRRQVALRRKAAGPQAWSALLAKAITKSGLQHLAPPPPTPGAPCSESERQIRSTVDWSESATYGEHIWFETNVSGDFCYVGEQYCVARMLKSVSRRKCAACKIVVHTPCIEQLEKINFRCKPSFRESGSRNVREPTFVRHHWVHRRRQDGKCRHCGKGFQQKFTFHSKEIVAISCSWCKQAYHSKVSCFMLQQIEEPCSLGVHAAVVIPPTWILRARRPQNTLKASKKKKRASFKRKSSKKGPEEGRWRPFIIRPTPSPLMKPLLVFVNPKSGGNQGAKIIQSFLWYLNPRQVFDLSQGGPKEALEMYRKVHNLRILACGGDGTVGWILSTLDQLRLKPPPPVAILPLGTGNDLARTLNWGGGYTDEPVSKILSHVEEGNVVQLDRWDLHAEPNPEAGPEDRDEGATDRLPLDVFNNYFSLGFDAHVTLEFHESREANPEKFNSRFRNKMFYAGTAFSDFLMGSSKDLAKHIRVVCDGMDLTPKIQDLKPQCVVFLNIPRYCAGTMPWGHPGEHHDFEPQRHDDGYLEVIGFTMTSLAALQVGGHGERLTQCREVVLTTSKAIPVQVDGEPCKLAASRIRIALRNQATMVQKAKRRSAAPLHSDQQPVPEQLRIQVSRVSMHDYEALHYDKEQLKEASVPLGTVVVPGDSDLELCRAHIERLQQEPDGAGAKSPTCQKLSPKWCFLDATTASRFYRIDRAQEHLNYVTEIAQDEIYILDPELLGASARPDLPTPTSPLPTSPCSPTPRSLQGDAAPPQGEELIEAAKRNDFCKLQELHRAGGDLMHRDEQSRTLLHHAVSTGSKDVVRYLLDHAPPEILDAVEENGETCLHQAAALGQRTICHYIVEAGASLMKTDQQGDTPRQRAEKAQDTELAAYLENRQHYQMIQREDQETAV

nuclear localization of DGKζ by subcellular fractionation and immunoblotting [1]: > 50%
Molecule: human protein kinase C γ (PKCγ) (from UniProt P05129) (enzyme)

rate of phosphorylation relative to native peptide ([2]; 0.2 mM peptide, identical conditions): approximately 1/6 | Km ([2]; read-out: Km of possible second, still lower affinity site): > 800 µM | Km ([2]; initial portion of the rectangular hyperbola, read-out: Km as substrate for PKM): ~50 µM | IC50 [3]: ~800 nM
Molecule: DGK(A/S) peptide: same peptide with an alanine substituted for the serine at residue 10 (SEQ ID NO: 16) (KASKKKKRAAFKRKSSKK)

Molecule: MARCKS: MARCKS synthetic peptide phosphorylated by PKM (KASKKKKRASFKRKSSKK)
Km [4]: 0.02 µM

Km of phosphorylation of the peptide by PKM [5]: 0.5 µM | Km of a possible second phosphorylation site [6]: > 800 µM | Km of phosphorylation of the peptide by PKM [6]: 50 µM
Molecule: protein kinase M (PKM), purified catalytic fragment of mixed rat brain PKC isozymes (pool or library)

DGK activity (DGK.zeta.-2; 1,2-dicapryl-sn-glycerol substrate, typical experiment, FIG. 21): 6.8 nmol/mg/min
Molecule: DGK.zeta.-2: alternatively spliced muscle form of DGK.zeta., 1,117 amino acid protein (SEQ ID NO: 6)
DAG kinase activity relative to vector alone (DGK.zeta.-2; transfected COS-7 homogenates): more than 50 fold

half-maximal inhibition of PKM phosphorylation of histone IIIS [7]: 800 nM
Molecule: KASKKKKRAAFKRKSSKK [DGK A/S peptide, the DGK peptide with an alanine substituted for the serine at residue 10]
